Experimental data reported in US20210277118A1 (Daiichi Sankyo, published 2021).

Columns and labels:
[1] = molecular target: T1, human CD3 expressed on T cells (Jurkat cells, human pan T cells/PBMC) (human, UniProt P07766 23-207); assay: flow cytometry on human T cells
T1 construct: whole, on cells; On T cells CD3 epsilon stands in the CD3 complex with the gamma, delta and zeta chains and the T-cell receptor; only the epsilon chain is written out; also called CD3+ Jurkat cells; human T cells
Procedure: Frozen human pan T cells or PBMCs were thawed and incubated with either media or serial dilutions of the anti-CD3 scFv-Fc constructs for one hour at 4° C. Commercially available SP34-2 antibody was used as positive controls while untreated cultures were used as negative controls. Following incubation with the anti-CD3 scFv constructs, the cells were washed and stained with a panel of conjugated antibodies specific for CD4, CD8, and IgG-Fc. The samples were acquired on a flow cytometer and analyzed using FlowJo version 10.1 software.

[2] = molecular target: T1, human CD3 expressed on T cells (Jurkat …); assay: cell ELISA on CD3+ Jurkat cells
Procedure: Cells were centrifuged and seeded in a 96-well filter plate in 50% complete culture medium/50% Blocking buffer. Equal volumes of 2× anti-CD3 scFv-Fc constructs or controls were added to cells and incubated for 1 hour. The plate was washed 4 times using vacuum filtration. An HRP-conjugated anti-human IgG Fc gamma specific secondary antibody was added to the wells and further incubated for 1 hour. The plate is washed 7 times by vacuum filtration followed by the addition of TMB substrate at room temperature. The reaction was stopped by adding 1 M sulfuric acid and supernatant was transferred into a clear 96-well plate. Absorbance (450 nm) was read on a Spectramax 340PC plate reader with path-check correction. Binding of the different scFv-Fc constructs to Jurkat cells and the apparent binding affinities are shown in FIG. 7 and Table 7, respectively.

[3] = molecular target: T2, cynomolgus monkey CD3 expressed on T cells (cynomolgus pan T cells/PBMC, HSC-F cell line) (cynomolgus monkey, UniProt Q95LI5 22-198); assay: flow cytometry on cynomolgus T cells
T2 construct: whole, on cells; On T cells in the CD3 complex with the other subunits; only the epsilon chain is written out; also called cyno CD3; cyno T cells
Procedure: Frozen Cynomolgus monkey PBMCs were thawed then washed with RPMI-1640 media. Pan T cells were then isolated from the PBMCs using a negative isolation kit (Miltenyi Biotec, San Diego, Calif.) as per the manufacturer's instructions. The pan T cells were incubated in media alone or media containing serial dilutions of the anti-CD3 scFv-Fc constructs for one hour at 4° C. Commercially available SP34-2 antibody was used as positive controls while untreated cultures were used as negative controls. Following incubation with the anti-CD3 scFv constructs, the cells were washed and stained with a panel of conjugated antibodies specific for CD4, CD8, and IgG-Fc. The samples were acquired on a flow cytometer and analyzed using FlowJo version 10.1 software.

[4] = molecular target: T3, Recombinant CD3epsilon/delta Fc fusion protein (Sino Biological) (human, UniProt P07766 23-126; P04234 22-105); assay: SPR (ProteOn XPR36), Equilibrium Fit, mean of three runs
T3 construct: Bought reagent; also called recombinant CD3 fusion protein; human CD3 antigen; not shown: Fc of the bought fusion protein; not described
Procedure: (§1) All SPR binding experiments were carried out using a BioRad ProteOn XPR36 instrument (Bio-Rad Laboratories, Hercules, Calif.) at 25° C. with 10 mM HEPES, 150 mM NaCl, 3.4 mM EDTA, and 0.05% Tween 20 at pH 7.4. Recombinant CD3epsilon/delta Fc fusion protein (Sino Biological, Wayne, Pa.) was captured on anti-Fc capture sensorchips. Purified antibodies were indirectly captured on the sensorchip by binding the recombinant CD3 fusion protein when injected at 25 μL/min for 240s (resulting in approx. 500 RUs) following a buffer injection to establish a stable baseline. Resultant KD values were determined from binding isotherms using the Equilibrium Fit model with reported values as the mean of three independent runs.

[5] = molecular target: T3, Recombinant CD3epsilon/delta Fc fusion …; assay: SPR (ProteOn XPR36), CD3epsilon/delta Fc fusion captured on anti-Fc chip, variant injected for 240 s; kinetic constants printed above the sensorgrams
Procedure: as §1

T3 sequence (P07766 23-126, stated change not applied, chain 1 of 2): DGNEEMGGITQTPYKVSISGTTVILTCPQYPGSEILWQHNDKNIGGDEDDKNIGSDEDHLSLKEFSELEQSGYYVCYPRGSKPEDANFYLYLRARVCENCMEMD
T3 sequence (P04234 22-105, stated change not applied, chain 2 of 2): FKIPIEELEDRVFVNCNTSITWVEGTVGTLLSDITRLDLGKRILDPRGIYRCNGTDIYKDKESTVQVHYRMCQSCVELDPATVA
T2 sequence (Q95LI5 22-198): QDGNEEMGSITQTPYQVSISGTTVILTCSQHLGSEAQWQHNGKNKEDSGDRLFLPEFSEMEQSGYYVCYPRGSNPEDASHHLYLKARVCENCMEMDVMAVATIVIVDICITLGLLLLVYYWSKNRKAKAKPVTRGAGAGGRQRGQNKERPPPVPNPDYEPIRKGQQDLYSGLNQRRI
T1 sequence (P07766 23-207): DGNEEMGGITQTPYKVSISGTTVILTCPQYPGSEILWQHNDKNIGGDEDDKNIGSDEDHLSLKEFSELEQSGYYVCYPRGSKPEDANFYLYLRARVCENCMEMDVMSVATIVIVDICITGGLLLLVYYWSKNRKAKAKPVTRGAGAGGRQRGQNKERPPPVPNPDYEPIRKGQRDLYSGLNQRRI

Binder | EC50 [1] [nM] | EC50 [2] [nM] | EC50 [3] [nM] | Kd [4] [nM] | Kd [5] [nM] | koff [5] [s⁻¹] | kon [5] [M⁻¹ s⁻¹]
variant 19363, monovalent anti-CD3 scFv-heterodimeric Fc (VL hC3E-1_6L3a (D52N), VH hC3E-1) (Fc fusion, not shown: a dimerising Fc or GST; small tags and cut ends, scFv order VH-(GGGGS)3-VL on Fc chain A; chain B is Fc only; also called v19363) scFv: EVQLVESGGGLVQPGGSLRLSCAASGVTFNYYGMSWIRQAPGKGLEWVASITNSGGRIYYPDSVKGRFTISRENTQKTLYLQMNSLRAEDTAVYYCTLDGRDGWVAYWGQGTLVTVSSGGGGSGGGGSGGGGSQFVLTQPPSASGTPGQRVTISCKRNTGNIGSNYVNWYQQLPGTAPKTIIYRNDKRPDGVPDRFSGSIDSSSNSASLAISGLQSEDEADYYCQSYSSGFIFGGGTKLTVL | 0.7 | 1.45 | 7.1 | 6.6 | 6.62 | 0.00383 | 578000
variant 18343, monovalent anti-CD3 scFv-heterodimeric Fc (VL hC3E-1-1L1, VH hC3E-1) (Fc fusion, not shown: a dimerising Fc or GST; small tags and cut ends, scFv order VH-(GGGGS)3-VL on Fc chain A; chain B is Fc only; also called v18343) scFv: EVQLVESGGGLVQPGGSLRLSCAASGVTFNYYGMSWIRQAPGKGLEWVASITNSGGRIYYPDSVKGRFTISRENTQKTLYLQMNSLRAEDTAVYYCTLDGRDGWVAYWGQGTLVTVSSGGGGSGGGGSGGGGSQSVLTQPPSASGTPGQRVTISCKRNTGNIGSNYVNWYQQLPGTAPKLLIYRDDKRPDGVPDRFSGSKSGTSASLAISGLQSEDEADYYCQSYSSGFIFGGGTKLTVL | – | 2.61 | – | 30 | – | – | –
variant 19370, monovalent anti-CD3 scFv-heterodimeric Fc (VL hC3E-1_1L1d, VH hC3E-1) (Fc fusion, not shown: a dimerising Fc or GST; small tags and cut ends, scFv order VH-(GGGGS)3-VL on Fc chain A; chain B is Fc only; also called v19370) scFv: EVQLVESGGGLVQPGGSLRLSCAASGVTFNYYGMSWIRQAPGKGLEWVASITNSGGRIYYPDSVKGRFTISRENTQKTLYLQMNSLRAEDTAVYYCTLDGRDGWVAYWGQGTLVTVSSGGGGSGGGGSGGGGSQVVLTQPPSASGTPGQRVTISCKRNTGNIGSNYVNWYQQLPGTAPKLLIYRDDKRPDGVPDRFSGSKSGTSASLAISGLQSEDEADYYCQSYSSGFIFGGGTKLTVL | 0.7 | 3.09 | 2.4 | 6.8 | – | – | –
variant 21827, monovalent anti-CD3 scFv-heterodimeric Fc (VL hC3E-1_1L1d, VH hC3E-1(N53S_D102E)) (Fc fusion, scFv order VH-(GGGGS)3-VL on Fc chain A; chain B is Fc only; also called v21827; not shown: Fc-only chain B is also left out) scFv: EVQLVESGGGLVQPGGSLRLSCAASGVTFNYYGMSWIRQAPGKGLEWVASITSSGGRIYYPDSVKGRFTISRENTQKTLYLQMNSLRAEDTAVYYCTLDGREGWVAYWGQGTLVTVSSGGGGSGGGGSGGGGSQVVLTQPPSASGTPGQRVTISCKRNTGNIGSNYVNWYQQLPGTAPKLLIYRDDKRPDGVPDRFSGSKSGTSASLAISGLQSEDEADYYCQSYSSGFIFGGGTKLTVL | 1.9 | – | 16.3 | – | – | – | –
variant 19373, monovalent anti-CD3 scFv-heterodimeric Fc (VL hC3E-1_1L1a, VH hC3E-1) (Fc fusion, scFv order VH-(GGGGS)3-VL on Fc chain A; chain B is Fc only; also called v19373; not shown: The Fc-only chain B is not tied by number to this variant) scFv: EVQLVESGGGLVQPGGSLRLSCAASGVTFNYYGMSWIRQAPGKGLEWVASITNSGGRIYYPDSVKGRFTISRENTQKTLYLQMNSLRAEDTAVYYCTLDGRDGWVAYWGQGTLVTVSSGGGGSGGGGSGGGGSQFVLTQPPSASGTPGQRVTISCKRNTGNIGSNYVNWYQQLPGTAPKLLIYRDDKRPDGVPDRFSGSKSGTSASLAISGLQSEDEADYYCQSYSSGFIFGGGTKLTVL | – | 0.99 | – | 3 | – | – | –
variant 19372, monovalent anti-CD3 scFv-heterodimeric Fc (VL hC3E-1_1L1b, VH hC3E-1) (Fc fusion, scFv order VH-(GGGGS)3-VL on Fc chain A; chain B is Fc only; also called v19372; not shown: The Fc-only chain B is not tied by number to this variant) scFv: EVQLVESGGGLVQPGGSLRLSCAASGVTFNYYGMSWIRQAPGKGLEWVASITNSGGRIYYPDSVKGRFTISRENTQKTLYLQMNSLRAEDTAVYYCTLDGRDGWVAYWGQGTLVTVSSGGGGSGGGGSGGGGSQLVLTQPPSASGTPGQRVTISCKRNTGNIGSNYVNWYQQLPGTAPKLLIYRDDKRPDGVPDRFSGSKSGTSASLAISGLQSEDEADYYCQSYSSGFIFGGGTKLTVL | 0.9 | 3.47 | 9.3 | 3.1 | – | – | –
